Consider two substances from article PMC2139871.

The target of assay [1] is cytoplasmic dynein 74-kD intermediate chain (mouse (endogenous in J774)) (UniProt O88487). Nature of the assay: co-IP.
For assay [2], the target named is actin-related protein Arp1 of the dynactin complex (mouse (endogenous in J774)) (UniProt P61164). Nature of the assay: co-IP.
Sequence of UniProt P61164 (P61164 whole entry, one chain of several): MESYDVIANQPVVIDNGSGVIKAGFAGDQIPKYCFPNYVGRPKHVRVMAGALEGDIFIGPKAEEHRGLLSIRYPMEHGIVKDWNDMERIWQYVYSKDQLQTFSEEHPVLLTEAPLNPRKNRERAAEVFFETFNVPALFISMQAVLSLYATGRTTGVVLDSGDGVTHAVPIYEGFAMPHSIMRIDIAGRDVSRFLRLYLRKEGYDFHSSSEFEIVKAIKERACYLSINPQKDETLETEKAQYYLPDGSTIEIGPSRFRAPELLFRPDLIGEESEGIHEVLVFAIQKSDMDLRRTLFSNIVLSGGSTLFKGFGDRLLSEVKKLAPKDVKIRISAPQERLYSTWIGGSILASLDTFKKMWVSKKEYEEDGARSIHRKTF

Sequence of UniProt O88487 (O88487 whole entry): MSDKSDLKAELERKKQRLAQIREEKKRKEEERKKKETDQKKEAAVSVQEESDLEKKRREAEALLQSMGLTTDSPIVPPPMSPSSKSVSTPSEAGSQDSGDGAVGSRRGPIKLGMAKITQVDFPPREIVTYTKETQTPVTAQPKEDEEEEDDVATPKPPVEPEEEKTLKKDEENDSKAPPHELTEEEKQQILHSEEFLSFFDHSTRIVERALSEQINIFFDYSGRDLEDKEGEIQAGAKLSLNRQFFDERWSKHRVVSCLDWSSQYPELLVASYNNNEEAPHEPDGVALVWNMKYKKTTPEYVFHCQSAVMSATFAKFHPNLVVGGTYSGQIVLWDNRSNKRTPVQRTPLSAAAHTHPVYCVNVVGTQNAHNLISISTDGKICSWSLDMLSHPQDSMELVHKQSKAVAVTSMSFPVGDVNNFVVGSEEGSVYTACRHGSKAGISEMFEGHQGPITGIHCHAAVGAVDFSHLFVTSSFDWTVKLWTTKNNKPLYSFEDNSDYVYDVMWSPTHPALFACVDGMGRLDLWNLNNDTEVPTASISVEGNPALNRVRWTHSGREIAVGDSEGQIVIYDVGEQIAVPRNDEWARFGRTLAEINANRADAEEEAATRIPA

In turn, “cytoplasmic dynein heavy chain (from UniProt Q9JHU4 1-4644) (natural protein)” showed a percent removed from cytosol by immunodepletion of the bait in assay [1] of 80%.
In turn, “dynactin subunit p150^Glued (from UniProt O08788 1-1281) (natural protein)” returned a percent removed from cytosol by immunodepletion of the bait in assay [2] of 95%.
